This is an account of results in patent publication US20060287509A1 (University of California, published 2006).

The target in assay [1] is T1, c-erbB-2 expressed on cells (SK-OV-3, SK-BR-3) (UniProt P04626 23-1255, limits assumed).
T1 construct: whole, on cells; also called native c-erbB-2 expressed on cells
In words: Scatchard after radioiodination, SK-OV-3 cells.

Assay [2] concerns the target T2, c-erbB-2 ECD with a Ser-Gly-His6 C-terminal fusion (UniProt P04626 23-652).
T2 construct: extracellular domain; expressed from CHO cells, IMAC purified; coupled to a CM5 chip, adsorbed to polystyrene, or biotinylated and captured on avidin; also called c-erbB-2 extracellular domain; biotinylated c-erbB-2 ECD
The assay is described as follows: competition ELISA: sFv preincubated with soluble ECD (0-100 nM), free sFv read on immobilized ECD.

In assay [3] the target is T2, c-erbB-2 ECD with a Ser-Gly-His6 …. The assay is described as follows: from SPR (BIAcore) Kd values.
The target in assay [4] is c-erbB-2 ECD with a Ser-Gly-His6 C-terminal fusion (UniProt P04626). The assay is described as follows: SPR (BIAcore).
For assay [5] the target is unchanged. The assay is described as follows: from SPR (BIAcore) Kd values.
Assay [6] has as its target T2, c-erbB-2 ECD with a Ser-Gly-His6 …. The assay is described as follows: SPR (BIAcore).
For assay [7] the target is unchanged. In words: SPR (BIAcore). The source holds these as a separate data set.
For assay [8], the target named is T1, c-erbB-2 expressed on cells (SK-OV-3, …). In words: FACS, biotinylated sFv on SK-OV-3 cells.
Assay [9] deals with T2, c-erbB-2 ECD with a Ser-Gly-His6 …. In words: SPR (BIAcore); clone eluted with 1 µM c-erbB-2 ECD.

Positions count from the first letter of the chain named.

B1: C6VLE (scFv)
chain: QVQLLQSGAELKKPGESLKISCKGSGYSFTSYWIAWVRQMPGKGLEYMGLIYPGDSDTKYSPSFQGQVTISVDKSVSTAYLQWSSLKPSDSAVYFCARHDVGYCSSSNCAKWPEYFQHWGQGTLVTVSSGGGGSGGGGSGGGGSQSVLTQPPSVSAAAGQKVTISCSGSSSSIGRNYVSWNQQLPGTAPKLLIWRNNQRPSGVPDRFSGSKSGTSASLAISGVRSEDEADYYCASWDNSLSGWVFGGGTKLTVLG
The molecule B1 returned a dissociation constant (Kd) in assay [1] of 71 nM. In assay [2], this molecule displayed an IC50 of 2.8 nM.

B2: C6VLF (scFv)
chain: QVQLLQSGAELKKPGESLKISCKGSGYSFTSYWIAWVRQMPGKGLEYMGLIYPGDSDTKYSPSFQGQVTISVDKSVSTAYLQWSSLKPSDSAVYFCARHDVGYCSSSNCAKWPEYFQHWGQGTLVTVSSGGGGSGGGGSGGGGSQSVLTQPPSMSAAPGQKVTISCSGSSSNIGNNYVSWYQQFPGTAPKLLIHDNNKRPSGIPDRISGSKSGTSASLAISGLQSDDEADYYCAAWDDSLNGWVFGGGTKLTVLG
Molecule B2 returned a Kd in assay [1] of 79 nM. Further, in assay [2], the IC50 turned out to be 7.5 nM.

B3: C6-12L1 (scFv)
chain: QVQLLQSGAELKKPGESLKISCKGSGYSFTSYWIAWVRQMPGKGLEYMGLIYPGDSDTKYSPSFQGQVTISVDKSVSTAYLQWSSLKPSDSAVYFCARHDVGYCSSSNCAKWPEYFQHWGQGTLVTVSSGGGGSGGGGSGGGGSQSVLTQPPSVSGAPGQWVTISCSGSSSNIGNNYVSWYQQLPGTAPKLLIYDNNKRPSGVPDRFSGSQSGTSASLAISGLRSEDEADYYCAAWDYSRSGWVFGGGTKLTVLG
As for B3, the ΔΔGI in [3] is -0.18 kcal/mol.

B4: C6-B1L1 (scFv, part only; not given: linker and VL, part only)
scFv, part: QVQLLQSGAELKKPGSLKISCKGSGYSFTSWIAWVRQMPGKGLEYGLIYPGDSDTKYSPSQGQVTISVDKSVSTALQWSSLKPSDSAVYFARHDVGYCHDVGYCTDRTCAKWPYFQHTVS
For the molecule B4, in [4], the equilibrium dissociation constant (Kd) came out at 0.63 nM, the Kd (C6.5)/Kd (mut) was 25, the Kd (parent)/Kd (mut) stood at 0.19 and the koff stood at 0.00024 s⁻¹. In assay [4], this molecule yielded a kon of 380000 M⁻¹ s⁻¹. This molecule also gave a ΔΔGI in [5] of 0.43 kcal/mol.

B5: C6-B47L1 (scFv, part only; not given: linker and VL, part only)
scFv, part: B4 scFv, part with T108S
On to B5, for which, in assay [4], the Kd is 0.6 nM, the Kd (C6.5)/Kd (mut) is 27, the Kd (parent)/Kd (mut) amounted to 0.18 and the koff came out at 0.00018 s⁻¹. In addition, in [4], the kon stood at 300000 M⁻¹ s⁻¹. For the same molecule, the ΔΔGI in [5] was 0.45 kcal/mol.

B6: C6ML3-9 (scFv)
scFv: QVQLLQSGAELKKPGESLKISCKGSGYSFTSYWIAWVRQMPGKGLEYMGLIYPGDSDTKYSPSFQGQVTISVDKSVSTAYLQWSSLKPSDSAVYFCARHDVGYCSSSNCAKWPEYFQHWGQGTLVTVSSGGGGSGGGGSGGGGSQSVLTQPPSVSAAPGQKVTISCSGSSSNIGNNYVSWYQQLPGTAPKLLIYGHTNRPAGVPDRFSGSKSGTSASLAISGFRSEDEADYYCASWDYTLSGWVFGGGTKLTVLG
notes: C6.5 with this VL CDR3; C-terminal myc and His6 tags; parent of the VH CDR3 libraries; also called C6ML3-9 (wt); wt C6ML3-9
In the case of B6, the “fold increase in affinity vs wild-type sFv (C6.5)” value in assay [6] came out at 16 fold. In [7], the kon amounted to 610000 M⁻¹ s⁻¹. Further, in assay [8], the “half life (t1/2) on the cell surface” value amounted to 11 min.

B7: C6-B1D2 (scFv)
chain: B6 scFv with S105T, S106D, S107R, N108T, Y115W, F116L, Q117G, H118V
In [3], B7 gave a ΔΔGI of -0.07 kcal/mol.

B8: C6-B1D5 (scFv)
chain: B6 scFv with S105T, S106D, S107R, N108T, Y115W, F116M, H118M
As for B8, the ΔΔGI in [3] was -0.4 kcal/mol.

B9: C6-B1D1 (scFv)
chain: B6 scFv with S105T, S106D, S107R, N108T, Y115W, F116L, Q117H, H118V
Take B9: in assay [3], the ΔΔGI was -0.61 kcal/mol.

B10: C6-B1D3 (scFv)
chain: B6 scFv with S105T, S106D, S107R, N108T, Y115W, F116L, Q117D, H118N
B10: the “fold lower Kd than wt C6.5” value in [6] worked out at 1230 fold. The molecule further registered a ΔΔGI in [3] of -0.53 kcal/mol.

B11: C6-9L1 (scFv)
chain: B3 chain with A235S, S239T, R240L
Molecule B11 showed a ΔΔGI in assay [3] of 0.42 kcal/mol.

B12: C6-B47D6 (scFv)
scFv: B6 scFv with S105T, S106D, S107R, N108S, Y115W, F116M, Q117Y, H118P
notes: C6MH3-B47 with the library D residues of C6MH3-D6
Take B12: in assay [3], the ΔΔGI worked out at 0.17 kcal/mol.

B13: C6MH3-B1 (scFv)
scFv: B6 scFv with S105T, S106D, S107R, N108T
notes: C6ML3-9 with this VH CDR3; C-terminal His6; also called C6MNH3-B1
Consider B13, for which, in [8], the “half life (t1/2) on the cell surface” value amounted to 102 min.

B14: C6-B47D5 (scFv)
scFv: B6 scFv with S105T, S106D, S107R, N108S, Y115W, F116M, H118M
notes: C6MH3-B47 with the library D residues of C6MH3-D5
On to B14, for which the ΔΔGI in [3] is -0.01 kcal/mol.

B15: C6ML3-7 (scFv)
scFv: B6 scFv with S235A, T239A, L240V
notes: C6.5 with this VL CDR3; C-terminal myc and His6 tags
On to B15, for which, in [6], the “fold increase in affinity vs wild-type sFv (C6.5)” value stood at 6 fold. Besides, in assay [7], the kon was 650000 M⁻¹ s⁻¹.

B16: C6ML3-5 (scFv)
scFv: B6 scFv with S235A, T239S
notes: as for B15
B16 registered a kon in [7] of 590000 M⁻¹ s⁻¹. The molecule further came in with a koff in assay [9] of 0.0019 s⁻¹.

B17: C6VLD (scFv)
chain: QVQLLQSGAELKKPGESLKISCKGSGYSFTSYWIAWVRQMPGKGLEYMGLIYPGDSDTKYSPSFQGQVTISVDKSVSTAYLQWSSLKPSDSAVYFCARHDVGYCSSSNCAKWPEYFQHWGQGTLVTVSSGGGGSGGGGSGGGGSQSVLTQPPSVSAAPGQKVTISCSGTNSNIGNNYVSWYQQLPGTAPKLLIYTNDQRPSGVPDRFSGSKSGTSASLAISGLQSEDEADYYCAAWDDSLNGWMFGGGTKLTVLG
In turn, B17 showed a Kd in assay [1] of 26 nM. Further, in assay [2], the IC50 was found to be 5.8 nM.
